According to US20150203577A1 (Chugai, published 2015):
Residue numbers refer to the chain shown, from its start. Numbers in names are those of the source. Where “and” joins values, the source holds several entries; their conditions need not be identical. Equal entries are not always repeated.

T1: mouse FcγRII (mouse, UniProt P08101 30-210)
T1 construct: also called mFcγRII; mFcgRII
T1 sequence: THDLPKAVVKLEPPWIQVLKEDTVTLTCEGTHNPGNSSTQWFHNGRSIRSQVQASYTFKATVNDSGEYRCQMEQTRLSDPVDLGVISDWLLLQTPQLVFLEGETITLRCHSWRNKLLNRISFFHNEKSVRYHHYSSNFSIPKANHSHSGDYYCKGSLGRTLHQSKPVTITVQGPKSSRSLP

T2: mouse FcγRIII (mouse, UniProt P08508 31-215)
T2 construct: also called mFcγRIII; mFcgRIII
T2 chain: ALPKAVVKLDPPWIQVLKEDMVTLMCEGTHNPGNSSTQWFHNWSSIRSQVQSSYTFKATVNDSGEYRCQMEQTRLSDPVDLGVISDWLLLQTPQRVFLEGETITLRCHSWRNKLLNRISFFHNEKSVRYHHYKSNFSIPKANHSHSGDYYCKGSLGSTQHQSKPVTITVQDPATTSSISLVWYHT

T3: mouse FcγRII (mouse, UniProt P08101 30-210)
T3 construct: Extracellular domain with C-terminal His tag, made in FreeStyle 293 cells; also called mFcγRII; mFcgRII
T3 sequence: T1 sequence

T4: mouse FcγRIII (mouse, UniProt P08508 31-215)
T4 construct: Extracellular domain with C-terminal His tag, made in FreeStyle 293 cells; also called mFcγRIII; mFcgRIII
T4 chain: T2 chain

B1: H237-MB110/MRAL-k0 (antibody, mouse IgG1, kappa)
heavy: QVQLQESGPGLVKPSETLSLTCAVSGHSISHDHAWSWVRQPPGEGLEWIGFISYSGITNYNPSLQGRVTISRDNSKNTLYLQMNSLRAEDTAVYYCARSLARTTAMDYWGEGTLVTVSSAKTTPPSVYPLAPGSAAQTNSMVTLGCLVKGYFPEPVTVTWNSGSLSSGVHTFPAVLQSDLYTLSSSVTVPSSTWPSETVTCNVAHPASSTKVDKKIVPRDCGCKPCICTVPEVSDVFIFPPKPKDVLTITLTPKVTCVVVDISKDDPEVQFSWFVDDVEVHTAQTQPREEQFNSTFRSVSELPIMHQDWLNGKEFKCRVNSAAFPAPIEKTISKTKGRPKAPQVYTIPPPKEQMAKDKVSLTCMITDFFPEDITVEWQWNGQPAENYKNTQPIMDTDGSYFVYSKLNVQKSNWEAGNTFTCSVLHEGLHNHHTEKSLSHSPGK
light: not shown
notes: copies: 2 + 2
B2: MB199 (antibody, mouse IgG1, kappa)
heavy: B1 heavy with D235S, S263A
light: not shown
notes: copies: 2 + 2
B3: MB188 (antibody, mouse IgG1, kappa)
heavy: B1 heavy with D235S, I262L
light: not shown
notes: copies: 2 + 2
B4: MB161 (antibody, mouse IgG1, kappa)
heavy: B1 heavy with D235S, F237W
light: not shown
notes: copies: 2 + 2
B5: MB251 (antibody, mouse IgG1, kappa)
heavy: B1 heavy with D235S, F292W
light: not shown
notes: copies: 2 + 2
B6: MB261 (antibody, mouse IgG1, kappa)
heavy: B1 heavy with D235S, S294L
light: not shown
notes: copies: 2 + 2
B7: MB162 (antibody, mouse IgG1, kappa)
heavy: B1 heavy with D235S, F237Y
light: not shown
notes: copies: 2 + 2
B8: H237-MB687/MRAL-k0 (antibody, mouse IgG1, kappa)
heavy: B1 heavy with T229E, V230P, S234E, D235L
light: not shown
notes: copies: 2 + 2
B9: H237-MB601/MRAL-k0 (antibody, mouse IgG1, kappa)
heavy: B1 heavy with T229E, V233E, D235S, F237D
light: not shown
notes: copies: 2 + 2
B10: H237-MB618/MRAL-k0 (antibody, mouse IgG1, kappa)
heavy: B1 heavy with V233E, S234D
light: not shown
notes: copies: 2 + 2
B11: H237-MB688/MRAL-k0 (antibody, mouse IgG1, kappa)
heavy: B1 heavy with P231Y, S234E, D235N
light: not shown
notes: copies: 2 + 2
B12: H237-MB640/MRAL-k0 (antibody, mouse IgG1, kappa)
heavy: B1 heavy with T229Q, V230P, P231N, S234E, D235N
light: not shown
notes: copies: 2 + 2
B13: H237-MB685/MRAL-k0 (antibody, mouse IgG1, kappa)
heavy: B1 heavy with V230P, P231A, S234E, D235L
light: not shown
notes: copies: 2 + 2
B14: H237-MB658/MRAL-k0 (antibody, mouse IgG1, kappa)
heavy: B1 heavy with T229Q, V230P, P231N, S234E, D235F
light: not shown
notes: copies: 2 + 2
B15: H237-MB657/MRAL-k0 (antibody, mouse IgG1, kappa)
heavy: B1 heavy with T229E, V230P, P231N, S234E, D235F
light: not shown
notes: copies: 2 + 2
B16: H237-MB599/MRAL-k0 (antibody, mouse IgG1, kappa)
heavy: B1 heavy with T229E, V233E, D235F
light: not shown
notes: copies: 2 + 2
B17: H237-MB638/MRAL-k0 (antibody)
heavy: B1 heavy with T229I, V230P, P231A, S234E, D235N
light: not shown
notes: 'T2301' read as T230I; copies: 2 + 2
B18: H237-MB625/MRAL-k0 (antibody, mouse IgG1, kappa)
heavy: B1 heavy with T229E, V230N, P231Y, S234E, D235L
light: not shown
notes: copies: 2 + 2
B19: H237-MB641/MRAL-k0 (antibody, mouse IgG1, kappa)
heavy: B1 heavy with T229E, V230A, P231Y, S234E, D235Y
light: not shown
notes: copies: 2 + 2
B20: H237-MB626/MRAL-k0 (antibody, mouse IgG1, kappa)
heavy: B1 heavy with T229E, V230T, P231Y, S234E, D235L
light: not shown
notes: copies: 2 + 2
B21: H237-MB643/MRAL-k0 (antibody, mouse IgG1, kappa)
heavy: B1 heavy with T229E, V230N, P231Y, S234E, D235Y
light: not shown
notes: copies: 2 + 2
B22: H237-MB600/MRAL-k0 (antibody, mouse IgG1, kappa)
heavy: B1 heavy with T229E, V233E, D235W
light: not shown
notes: copies: 2 + 2
B23: H237-MB624/MRAL-k0 (antibody, mouse IgG1, kappa)
heavy: B1 heavy with T229E, V230D, P231Y, S234E, D235L
light: not shown
notes: copies: 2 + 2
B24: H237-MB617/MRAL-k0 (antibody, mouse IgG1, kappa)
heavy: B1 heavy with V233E, F237D
light: not shown
notes: copies: 2 + 2
B25: H237-MB647/MRAL-k0 (antibody)
heavy: B1 heavy with T229I, V230P, P231A, S234E, D235Y
light: not shown
notes: as for B17
B26: H237-MB611/MRAL-k0 (antibody, mouse IgG1, kappa)
heavy: B1 heavy with V233E, S234D, D235E
light: not shown
notes: copies: 2 + 2
B27: H237-MB623/MRAL-k0 (antibody, mouse IgG1, kappa)
heavy: B1 heavy with T229E, V230A, P231Y, S234E, D235L
light: not shown
notes: copies: 2 + 2
B28: H237-MB642/MRAL-k0 (antibody, mouse IgG1, kappa)
heavy: B1 heavy with T229E, V230D, P231Y, S234E, D235Y
light: not shown
notes: copies: 2 + 2

Each binder was assayed against T1, mouse FcγRII (assay: SPR Biacore T200, KD ratio).

| Relative mFcγRII-binding activity (MB110 = 1) | relative mFcγRII-binding activity (mIgG1 = 1) | Binder |
| --- | --- | --- |
| 1 fold | 12.3 fold | B1 |

Target: T2, mouse FcγRIII
Assay: SPR Biacore T200, KD ratio

| Relative mFcγRIII-binding activity (MB110 = 1) | relative mFcγRIII-binding activity (mIgG1 = 1) | Binder |
| --- | --- | --- |
| 1 fold | 4 fold | B1 |

Each binder was assayed against T1, mouse FcγRII (assay: SPR Biacore 4000, KD ratio).
Description: (§1) Each altered antibody was analyzed for its interaction with each Fcγ receptor prepared above using Biacore T100 (GE Healthcare Japan Corp.), Biacore T200 (GE Healthcare Japan Corp.), Biacore A100, or Biacore 4000. The running buffer used was HBS-EP+ (GE Healthcare Japan Corp.). The assay temperature was set to 25° C. The sensor chips used were chips prepared by immobilizing Protein L (ACTIGEN or BioVision) onto Series S Sensor Chip CM5 (GE Healthcare Japan Corp.) or Series S Sensor Chip CM4 (GE Healthcare Japan Corp.) by the amine coupling method.
(§2) In order to calculate the KD value of each altered antibody for FcγR, kinetic analysis was conducted according to the following method: first, the antibody of interest was captured onto any of these chips and allowed to interact with mFcγR diluted with a running buffer. For the obtained sensorgram, the assay results were globally fit into the 1:1 Langmuir binding model using Biacore Evaluation Software to calculate an association rate constant ka (L/mol/s) and a dissociation rate constant kd (1/s). From these values, the dissociation constant KD (mol/L) was calculated.

| relative mFcγRII-binding activity (mIgG1 = 1) | Binder |
| --- | --- |
| 15.1 fold | B1 |
| 1.48 fold | B2 |
| 1.16 fold | B3 |
| 1.47 fold | B4 |
| 1.49 fold | B5 |
| 2.11 fold | B6 |
| 1.4 fold | B7 |

Target: T2, mouse FcγRIII
Assay: SPR Biacore 4000, KD ratio
Description: as §1, §2

| relative mFcγRIII-binding activity (mIgG1 = 1) | Binder |
| --- | --- |
| 4.45 fold | B1 |
| 1.19 fold | B2 |
| 1 fold | B3 |
| 1.13 fold | B4 |
| 1.23 fold | B5 |
| 1.81 fold | B6 |
| 1.2 fold | B7 |

What follows are binders tested against T3, mouse FcγRII (assay: SPR (Biacore), antibody captured on Protein L).
Description: as §1, §2

| Kd | Binder |
| --- | --- |
| 345 nM | B8 |
| 389 nM | B9 |
| 156 nM | B10 |
| 513 nM | B11 |
| 197 nM | B12 |
| 537 nM | B13 |
| 415 nM | B14 |
| 118 nM and 211 nM | B15 |
| 306 nM | B16 |
| 280 nM | B17 |
| 312 nM | B18 |
| 143 nM | B19 |
| 261 nM | B20 |
| 126 nM | B21 |
| 171 nM | B22 |
| 263 nM | B23 |
| 255 nM | B24 |
| 200 nM | B25 |
| 192 nM | B26 |
| 395 nM | B27 |
| 197 nM | B28 |

Target: T4, mouse FcγRIII
Assay: SPR (Biacore), antibody captured on Protein L
Description: as §1, §2

| Kd | Binder |
| --- | --- |
| 5.32 µM | B8 |
| 3.23 µM | B9 |
| 2.73 µM | B10 |
| 6.3 µM | B11 |
| 1.55 µM | B12 |
| 5.49 µM | B13 |
| 4.88 µM | B14 |
| 3.48 µM and 5.87 µM | B15 |
| 3.02 µM | B16 |
| 3.38 µM | B17 |
| 2.31 µM | B18 |
| 2.1 µM | B19 |
| 2.37 µM | B20 |
| 2 µM | B21 |
| 1.27 µM | B22 |
| 2.87 µM | B23 |
| 2.1 µM | B24 |
| 2.8 µM | B25 |
| 3.42 µM | B26 |
| 3.17 µM | B27 |
| 5.11 µM | B28 |

These binders were tested against T3, mouse FcγRII (assay: SPR (Biacore), KD of H237-mIgG1/MRAL-k0 (same run) / KD of variant).
Description: as §1, §2

| relative mFcγRII-binding activity (mIgG1 = 1) | Binder |
| --- | --- |
| 0.94 fold | B8 |
| 0.55 fold | B9 |
| 1.63 fold | B10 |
| 0.63 fold | B11 |
| 1.17 fold | B12 |
| 0.61 fold | B13 |
| 0.56 fold | B14 |
| 0.7 fold | B16 |
| 0.83 fold | B17 |
| 0.74 fold | B18 |
| 1.62 fold | B19 |
| 0.89 fold | B20 |
| 1.83 fold | B21 |
| 1.24 fold | B22 |
| 0.88 fold | B23 |
| 0.84 fold | B24 |
| 1.16 fold | B25 |
| 1.11 fold | B26 |
| 0.59 fold | B27 |
| 1.65 fold | B28 |

Target: T4, mouse FcγRIII
Assay: as above
Description: as §1, §2

| relative mFcγRIII-binding activity (mIgG1 = 1) | Binder |
| --- | --- |
| 0.1 fold | B8 |
| 0.1 fold | B9 |
| 0.13 fold | B10 |
| 0.08 fold | B11 |
| 0.21 fold | B12 |
| 0.09 fold | B13 |
| 0.07 fold | B14 |
| 0.09 fold | B15 |
| 0.11 fold | B16 |
| 0.1 fold | B17 |
| 0.14 fold | B18 |
| 0.15 fold | B19 |
| 0.14 fold | B20 |
| 0.16 fold | B21 |
| 0.25 fold | B22 |
| 0.11 fold | B23 |
| 0.15 fold | B24 |
| 0.12 fold | B25 |
| 0.09 fold | B26 |
| 0.1 fold | B27 |
| 0.1 fold | B28 |
